Data on two substances can be found in paper PMC9612522.

The test concerns the target His-Pak4cat (UniProt O96013).
Chain of UniProt O96013 (O96013 286-591): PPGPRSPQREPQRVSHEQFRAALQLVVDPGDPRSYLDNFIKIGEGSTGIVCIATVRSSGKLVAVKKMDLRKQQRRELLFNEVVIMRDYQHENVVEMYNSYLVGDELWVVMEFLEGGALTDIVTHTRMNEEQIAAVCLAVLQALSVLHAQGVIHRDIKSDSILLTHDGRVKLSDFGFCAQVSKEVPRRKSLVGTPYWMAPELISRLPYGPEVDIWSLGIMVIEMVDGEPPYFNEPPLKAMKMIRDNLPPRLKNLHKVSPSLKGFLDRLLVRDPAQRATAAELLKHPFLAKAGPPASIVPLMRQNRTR

Chain of GST-Inka2-iBox (Q9NTI7 133-193): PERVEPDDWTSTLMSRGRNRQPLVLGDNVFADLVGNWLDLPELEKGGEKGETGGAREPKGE
Chain of GST-Inka1-iBox (Q96EL1 166-203): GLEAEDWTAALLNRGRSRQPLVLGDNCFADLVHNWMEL

Take “GST-Inka1-iBox (from UniProt Q96EL1 166-203) (domain or fragment)”: the IC50 of inhibition of His-Pak4cat kinase activity (in vitro kinase assay, ADP-Glo luminescence, AKT1 peptide substrate; dose-response with 0.75 ng-400 ng of GST-Inka1-iBox) amounted to 67.7 nM.
On to “GST-Inka2-iBox (from UniProt Q9NTI7 133-193) (domain or fragment)”, for which the IC50 of inhibition of His-Pak4cat kinase activity (in vitro kinase assay, ADP-Glo luminescence, AKT1 peptide substrate; dose-response with 0.75 ng-400 ng of GST-Inka2-iBox) worked out at 60.3 nM.
